Results on ten molecules are retold here after patent US20260070940A1 (Hoffmann-La Roche, published 2026).

A word on the koff: it is the rate constant with which the complex falls apart.

For test [1], the target named is T1, human FAP avi his, biotinylated (human, UniProt Q12884 27-759, biotin on the avi-tag).
T1 construct: also called huFAP
Description: SPR, bacterial supernatant.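 Also: SPR at 25 °C with biotinylated human or murine FAP captured via neutravidin, aVH-containing bacterial supernatants diluted 1:3 as analyte, 600 s dissociation, blank supernatant without aVH as reference.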
Description: (§1) Clones that were identified in the “mix-and-read assay” performed with the Mirrorball instrument were further analyzed by Surface Plasmon Resonance (SPR). The off-rate of selected aVH clones was measured using a ProteOn XPR36 instrument (Biorad) at 25° C. with biotinylated human and murine FAP antigen immobilized on NLC chips by neutravidin capture. Immobilization of recombinant antigens (ligand): Antigens were diluted with PBST (10 mM phosphate, 150 mM sodium chloride pH 7.4, 0.005% Tween 20) to 10 μg/ml, then injected at 30 μl/minute at varying contact times, to achieve immobilization levels of 400, 800 or 1600 response units (RU) in vertical orientation. Injection of analytes: Injection direction was changed to horizontal orientation and 5 individual aVH-containing supernatants that were diluted 1:3 with PBST were injected simultaneously at 60 μl/min along separate channels 1-5, with association times between 120 and 180s, and dissociation times of 600s. Diluted bacterial supernatant without aVH was injected along the sixth channel to provide an “in-line” blank for referencing. Dissociation rate constants (koff) were calculated using the “koff-rate” calculation in ProteOn Manager v3.1 software.

Test [2] has as its target T2, murine FAP avi his, biotinylated (murine, UniProt P97321 27-761, biotin on the avi-tag).
T2 construct: also called muFAP; mu FAP
Description: SPR, bacterial supernatant. (In general: In SPR one partner is held on a chip, and binding of the other changes the refractive index at the surface.)
Description: as §1

B1: anti-FAP aVH P034.066 (VHH)
VHH: EVQLVESGGGLVQPGGSLRLSCAASGFNIKDTCIGWVRRAPGKEEELVANICGITGYTRYADSVKGRFTISADTSKNTAYLQMNSLRAEDTAVYYCAKSGGPKGYTYWGQGTTVTVSS
As to B1, the values for the koff in test [1] and in test [2] were 0.000215 s⁻¹ and 0.00253 s⁻¹, respectively.

B2: anti-FAP aVH P034.001 (VHH)
VHH: EVQLVESGGGLVQPGGSLRLSCAASGFNIKDTCIGWVRRAPGKEEELVANICGSIGATRYADSVKGRFTISADTSKNTAYLQMNSLRAEDTAVYYCAKSGGHKGYRYWGQGTTVTVSS
Turning to B2, the binding result in test [1] is listed as “no binding”. This molecule also showed an off-rate constant (koff) in test [2] of 0.0176 s⁻¹.

B3: anti-FAP aVH P058.068 (VHH)
VHH: EVQLVESGGGLVQPGGSLRLSCAASGFNIKDTCIGWVRRAPGKEEELVANICQTHGYTRYADSVKGRFTISADTSKNTAYLQMNSLRAEDTAVYYCAYKGGGRYYDYWGQGTTVTVSS
As to B3, the koff in test [1] is 0.00316 s⁻¹. Moreover, the binding result in test [2] is given as “no binding”.

B4: anti-FAP aVH P031.033 (VHH)
VHH: EVQLVESGGGLVQPGGSLRLSCAASGFNIKDTCIGWVRRAPGKEEELVANICGQYGQTRYADSVKGRFTISADTSKNTAYLQMNSLRAEDTAVYYCAKSGGRHGYEYWGQGTTVTVSS
On to B4, for which the binding result in test [1] is reported as “no binding”. In test [2], the koff worked out at 0.0106 s⁻¹.

B5: anti-FAP aVH P034.007 (VHH)
VHH: EVQLVESGGGLVQPGGSLRLSCAASGFNIKDTCIGWVRRAPGKEEELVANICGGDGHTRYADSVKGRFTISADTSKNTAYLQMNSLRAEDTAVYYCATSYTVYRYYYWGQGTTVTVSS
As for B5, the values for the koff in test [1] and in test [2] were 0.00385 s⁻¹ and 0.0106 s⁻¹, respectively.

B6: anti-FAP aVH P032.056 (VHH)
VHH: EVQLVESGGGLVQPGGSLRLSCAASSFNIKDTYIGWVRRAPGKEEELVANIHCRSGYTRYADSVKGRFTISCDTSKNTAYLQMNSLRAEDTAVYYCAHSGSRYIYKYWGQGTTVTVSS
B6: in test [1], the binding result is listed as “no binding”. Further, the koff in test [2] worked out at 0.0222 s⁻¹.

B7: anti-FAP aVH P054.035 (VHH)
VHH: EVQLVESGGGLVQPGGSLRLSCAASGFNIKDTCIGWVRRAPGKEEELVANICGSYGHTRYADSVKGRFTISADTSKNTAYLQMNSLRAEDTAVYYCASSYTVYRSYAYWGQGTTVTVSS
For the molecule B7, the values for the koff in test [1] and in test [2] were 0.0141 s⁻¹ and 0.0151 s⁻¹, respectively.

B8: anti-FAP aVH P054.064 (VHH)
VHH: EVQLVESGGGLVQPGGSLRLSCAASGFNIKDTCIGWVRRAPGKEEELVANICGSNGYTRYADSVKGRFTISADTSKNTAYLQMNSLRAEDTAVYYCASSYTVYRGYDYWGQGTTVTVSS
For the molecule B8, the figures for the koff in test [1] and in test [2] were 0.0161 s⁻¹ and 0.0312 s⁻¹, respectively.

B9: anti-FAP aVH P053.020 (VHH)
VHH: EVQLVESGGGLVQPGGSLRLSCAASGFNIKDTCIGWVRRAPGKEEELVARICGQIGSTRYADSVKGRFTISADTSKNTAYLQMNSLRAEDTAVYYCATSYTVYRSYDYWGQGTTVTVSS
For B9, the koff amounted to 0.0125 s⁻¹ in test [1] and 0.0294 s⁻¹ in test [2].

B10: anti-FAP aVH P048.019 (VHH)
VHH: EVQLVESGGGLVQPGGSLRLSCAASGFNIKDTCIGWVRRAPGKEEELVANICPKHGATRYADSVKGRFTISADTSKNTAYLQMNSLRAEDTAVYYCAYSGNVYNRYKYWGQGTTVTVSS
Regarding B10, the koff turned out to be 0.00547 s⁻¹ in test [1] and 0.0171 s⁻¹ in test [2].
